Where no end group is shown, it is not given here. [ ]: non-standard residue; d: D form. The star is where a group is joined. Biotin = O=C1N[C@H]2[C@H](CS[C@H]2CCCCC(=O)*)N1; pY = N[C@@H](Cc1ccc(OP(=O)(O)O)cc1)C(=O)O
T1: GADS SH2 domain, His-tagged (UniProt O75791 58-149)
T1 chain: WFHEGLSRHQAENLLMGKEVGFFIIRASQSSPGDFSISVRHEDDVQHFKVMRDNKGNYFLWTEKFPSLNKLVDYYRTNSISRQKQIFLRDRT

T2: SLP-76 SH2 domain, His-tagged (UniProt Q13094 422-530)
T2 chain: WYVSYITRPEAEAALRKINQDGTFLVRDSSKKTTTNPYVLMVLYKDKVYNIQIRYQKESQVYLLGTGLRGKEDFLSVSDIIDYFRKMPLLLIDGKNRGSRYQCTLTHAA

T3: CD6 long pY629 peptide (Homo sapiens, UniProt P30203, pY629)
T3 chain: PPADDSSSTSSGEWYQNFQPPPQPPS

T4: CD28 pYMN peptide (Homo sapiens, UniProt P10747)
T4 chain: LLHSD[pY]MNMTPRR


Experiments:
Assay in all cases: SPR
[1] = biological target: T1, GADS SH2 domain, His-tagged
[2] = biological target: T2, SLP-76 SH2 domain, His-tagged
CD6 long pY629 peptide = biological target: T3, CD6 long pY629 peptide
CD28 pYMN peptide = biological target: T4, CD28 pYMN peptide

Row | Binder | Kd [1] [nM] | Kd [2] [nM] | Kd (CD6 long pY629 peptide) [nM] | Kd (CD28 pYMN peptide) [nM]
1 | Biotin-STSSGEW[pY]QNFQPPPQPPSEEQFGCPGSPSPQPDSTDNDDYDDISAA [long CD6 peptide phosphorylated at Y629] | 1000 | – | – | –
2 | GADS SH2 (protein) FPKWFHEGLSRHQAENLLMGKEVGFFIIRASQSSPGDFSISVRHEDDVQHFKVMRDNKGNYFLWTEKFPSLNKLVDYYRTNSISRQKQIFLRDRTRED | – | – | ~400 | ~2500

Continued, values first:

Row | Kd [1] [nM] | Kd [2] [nM] | Kd (CD6 long pY629 peptide) [nM] | Kd (CD28 pYMN peptide) [nM] | Binder
3 | 1000 | 1000 | – | – | Biotin-STSSGEW[pY]QNFQPPPQPPSEEQFGCPGSPSPQPDSTDNDD[pY]DDISAA [long CD6 peptide phosphorylated at Y629 and Y662]
4 | – | 1000 | – | – | Biotin-STSSGEWYQNFQPPPQPPSEEQFGCPGSPSPQPDSTDNDD[pY]DDISAA [long CD6 peptide phosphorylated at Y662]
